Experimental data as given in patent US20240132624A1 (Ablynx, published 2024).

Key:
human FcRn/b2M [1] = molecular target: T1, human FcRn/b2M (human, UniProt P61769 21-119, biotinylated); assay: SPR pH 7.4;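 further: surface plasmon resonance kinetics, periplasmic extracts diluted 1:10 flowed over immobilized target at 25 °C, 120 s association then 600–3600 s dissociation, buffer with 150 mM NaCl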
T1 construct: bought recombinant biotinylated protein (ACRO FCM-H82W4 or Immunitrack ITF01); also called hFcRn; hFcRn/hb2M
Experimental: (§1) All kinetic measurements have been performed on ProteOn XPR36 (BioRad Laboratories, Inc.), MASS-2 (Sierra sensors, Gmbh) or SPR-32 (Bruker Corporation). […] The phytip purified periplasmic extracts were diluted 1:10 in running buffer (CPA+150 mM NaCl+0.005% Tw20 at pH 5.5, pH 6.0 or pH 7.4) and injected over the ligand surfaces (association: 120 s at 45 μL/min; dissociation: 600s-3600 s at 45 μL/min). Experiments were carried out at 25° C.

cyno FcRn/b2M [2] = molecular target: T2, cyno FcRn/b2M (cyno, UniProt Q8SPV9 24-297; Q8SPW0 21-119, biotinylated); assay: SPR pH 7.4;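 further: surface plasmon resonance kinetics, periplasmic extracts diluted 1:10 flowed over immobilized target at 25 °C, 120 s association then 600–3600 s dissociation, buffer with 150 mM NaCl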
T2 construct: bought recombinant biotinylated protein (Immunitrack ITF05 or ACRO FCM-C82W5); also called cFcRn; cFcRn/cb2M
Experimental: as §1

human FcRn/b2M [3] = molecular target: T1, human FcRn/b2M; assay: SPR off-rate; pH 7.4 vs pH 6.0;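 further: surface plasmon resonance with diluted periplasmic extracts flowed over ligand surfaces, 120 s association and 600–3600 s dissociation at 25 °C, running buffer containing 150 mM NaCl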
Experimental: as §1

cyno FcRn/b2M [4] = molecular target: T2, cyno FcRn/b2M; assay: SPR off-rate; pH 7.4 vs pH 6.0;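 further: surface plasmon resonance with diluted periplasmic extracts flowed over ligand surfaces, 120 s association and 600–3600 s dissociation at 25 °C, running buffer containing 150 mM NaCl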
Experimental: as §1

human FcRn/b2M [5] = molecular target: T1, human FcRn/b2M; assay: SPR pH 6.0;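 further: surface plasmon resonance kinetics at 25 °C, diluted periplasmic extracts injected over immobilized ligand surfaces, 120 s association then 600–3600 s dissociation, running buffer containing 150 mM NaCl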
Experimental: as §1

cyno FcRn/b2M [6] = molecular target: T2, cyno FcRn/b2M; assay: SPR pH 6.0;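 further: surface plasmon resonance kinetics at 25 °C, diluted periplasmic extracts injected over immobilized ligand surfaces, 120 s association then 600–3600 s dissociation, running buffer containing 150 mM NaCl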
Experimental: as §1

T1 sequence (chain, as listed by the source limits assumed, chain 1 of 2): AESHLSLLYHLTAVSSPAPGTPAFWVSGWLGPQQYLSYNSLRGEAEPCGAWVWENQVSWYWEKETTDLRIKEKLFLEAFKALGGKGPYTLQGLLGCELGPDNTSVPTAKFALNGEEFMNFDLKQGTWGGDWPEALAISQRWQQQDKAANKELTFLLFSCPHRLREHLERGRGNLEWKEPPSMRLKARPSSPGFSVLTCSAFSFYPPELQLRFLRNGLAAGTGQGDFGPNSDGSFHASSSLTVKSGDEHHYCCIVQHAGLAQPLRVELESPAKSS
T1 sequence (P61769 21-119 limits assumed, chain 2 of 2): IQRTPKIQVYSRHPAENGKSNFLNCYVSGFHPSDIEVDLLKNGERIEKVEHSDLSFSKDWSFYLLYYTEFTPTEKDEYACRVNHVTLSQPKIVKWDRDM
T2 sequence (Q8SPV9 24-297 limits assumed, chain 1 of 2): as the sequence (chain, as listed by the source limits assumed, chain 1 of 2) above, with N39D, E44Q, G99S, S189G, S190N, L217M, S269T counted along it
T2 sequence (Q8SPW0 21-119 limits assumed, chain 2 of 2): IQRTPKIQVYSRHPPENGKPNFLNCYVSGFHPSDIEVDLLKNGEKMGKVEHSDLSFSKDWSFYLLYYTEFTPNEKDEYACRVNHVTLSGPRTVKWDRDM

Row | Binder | koff (human FcRn/b2M [1]) [s⁻¹] | koff (cyno FcRn/b2M [2]) [s⁻¹] | kd ratio pH 7.4/6.0 (human FcRn/b2M [3]) | kd ratio pH 7.4/6.0 (cyno FcRn/b2M [4]) | koff (human FcRn/b2M [5]) [s⁻¹] | koff (cyno FcRn/b2M [6]) [s⁻¹]
1 | T0263018B11 S52G (VHH, name in Kabat numbering, FLAG3-His6 tagged) VHH: EVQLVESGGGVVQPGGSLRLSCAASGFTFSSYAMYWVRQAPGKGLEWVSAIGSGGGSTDYADSVKGRFTISRDNSKNTLYLQMNSLRPEDTALYYCAADTLYTSLTWYSYWGQGTLVTVSS | 0.012 | 0.011 | 32 | 27 | 0.00039 | 0.0004
2 | T0263018B11 S52aE (VHH, name in Kabat numbering, FLAG3-His6 tagged) VHH: EVQLVESGGGVVQPGGSLRLSCAASGFTFSSYAMYWVRQAPGKGLEWVSAISEGGGSTDYADSVKGRFTISRDNSKNTLYLQMNSLRPEDTALYYCAADTLYTSLTWYSYWGQGTLVTVSS | 0.036 | 0.039 | 41 | 51 | 0.00087 | 0.00077
3 | T0263018B11 S52aW (VHH, name in Kabat numbering, FLAG3-His6 tagged) VHH: EVQLVESGGGVVQPGGSLRLSCAASGFTFSSYAMYWVRQAPGKGLEWVSAISWGGGSTDYADSVKGRFTISRDNSKNTLYLQMNSLRPEDTALYYCAADTLYTSLTWYSYWGQGTLVTVSS | 0.062 | 0.043 | 41 | 54 | 0.0015 | 0.0008
4 | T0263018B11 S52aY (VHH, name in Kabat numbering, FLAG3-His6 tagged) VHH: EVQLVESGGGVVQPGGSLRLSCAASGFTFSSYAMYWVRQAPGKGLEWVSAISYGGGSTDYADSVKGRFTISRDNSKNTLYLQMNSLRPEDTALYYCAADTLYTSLTWYSYWGQGTLVTVSS | 0.035 | 0.023 | 42 | 44 | 0.00083 | 0.00052
5 | T0263018B11 S52aA (VHH, name in Kabat numbering, FLAG3-His6 tagged) VHH: EVQLVESGGGVVQPGGSLRLSCAASGFTFSSYAMYWVRQAPGKGLEWVSAISAGGGSTDYADSVKGRFTISRDNSKNTLYLQMNSLRPEDTALYYCAADTLYTSLTWYSYWGQGTLVTVSS | 0.029 | 0.022 | 43 | 51 | 0.00068 | 0.00043
6 | T0263018B11 S52aG (VHH, name in Kabat numbering, FLAG3-His6 tagged) VHH: EVQLVESGGGVVQPGGSLRLSCAASGFTFSSYAMYWVRQAPGKGLEWVSAISGGGGSTDYADSVKGRFTISRDNSKNTLYLQMNSLRPEDTALYYCAADTLYTSLTWYSYWGQGTLVTVSS | 0.034 | 0.031 | 39 | 51 | 0.00088 | 0.0006
7 | T0263018B11 S52T (VHH, name in Kabat numbering, FLAG3-His6 tagged) VHH: EVQLVESGGGVVQPGGSLRLSCAASGFTFSSYAMYWVRQAPGKGLEWVSAITSGGGSTDYADSVKGRFTISRDNSKNTLYLQMNSLRPEDTALYYCAADTLYTSLTWYSYWGQGTLVTVSS | 0.045 | 0.042 | 24 | 25 | 0.0019 | 0.0017
8 | T0263018B11 S52aR (VHH, name in Kabat numbering, FLAG3-His6 tagged) VHH: EVQLVESGGGVVQPGGSLRLSCAASGFTFSSYAMYWVRQAPGKGLEWVSAISRGGGSTDYADSVKGRFTISRDNSKNTLYLQMNSLRPEDTALYYCAADTLYTSLTWYSYWGQGTLVTVSS | 0.13 | 0.091 | 56 | 61 | 0.0023 | 0.0015
9 | T0263018B11 S52aP (VHH, name in Kabat numbering, FLAG3-His6 tagged) VHH: EVQLVESGGGVVQPGGSLRLSCAASGFTFSSYAMYWVRQAPGKGLEWVSAISPGGGSTDYADSVKGRFTISRDNSKNTLYLQMNSLRPEDTALYYCAADTLYTSLTWYSYWGQGTLVTVSS | 0.029 | 0.021 | 53 | 71 | 0.00054 | 0.0003
10 | T0263018B11 S52aT (VHH, name in Kabat numbering, FLAG3-His6 tagged) VHH: EVQLVESGGGVVQPGGSLRLSCAASGFTFSSYAMYWVRQAPGKGLEWVSAISTGGGSTDYADSVKGRFTISRDNSKNTLYLQMNSLRPEDTALYYCAADTLYTSLTWYSYWGQGTLVTVSS | 0.062 | 0.059 | 39 | 49 | 0.0016 | 0.0012
11 | T0263018B11 S52aM (VHH, name in Kabat numbering, FLAG3-His6 tagged) VHH: EVQLVESGGGVVQPGGSLRLSCAASGFTFSSYAMYWVRQAPGKGLEWVSAISMGGGSTDYADSVKGRFTISRDNSKNTLYLQMNSLRPEDTALYYCAADTLYTSLTWYSYWGQGTLVTVSS | 0.018 | 0.013 | 36 | 48 | 0.00048 | 0.00027
12 | T0263018B11 S52R (VHH, name in Kabat numbering, FLAG3-His6 tagged) VHH: EVQLVESGGGVVQPGGSLRLSCAASGFTFSSYAMYWVRQAPGKGLEWVSAIRSGGGSTDYADSVKGRFTISRDNSKNTLYLQMNSLRPEDTALYYCAADTLYTSLTWYSYWGQGTLVTVSS | 0.44 | 0.38 | 20 | 24 | 0.023 | 0.016
13 | T0263018B11 S52Q (VHH, name in Kabat numbering, FLAG3-His6 tagged) VHH: EVQLVESGGGVVQPGGSLRLSCAASGFTFSSYAMYWVRQAPGKGLEWVSAIQSGGGSTDYADSVKGRFTISRDNSKNTLYLQMNSLRPEDTALYYCAADTLYTSLTWYSYWGQGTLVTVSS | 0.15 | 0.14 | 22 | 26 | 0.0067 | 0.0055
14 | T0263018B11 S52P (VHH, name in Kabat numbering, FLAG3-His6 tagged) VHH: EVQLVESGGGVVQPGGSLRLSCAASGFTFSSYAMYWVRQAPGKGLEWVSAIPSGGGSTDYADSVKGRFTISRDNSKNTLYLQMNSLRPEDTALYYCAADTLYTSLTWYSYWGQGTLVTVSS | 0.03 | 0.048 | 27 | 37 | 0.0011 | 0.0013
15 | T0263018B11 S52V (VHH, name in Kabat numbering, FLAG3-His6 tagged) VHH: EVQLVESGGGVVQPGGSLRLSCAASGFTFSSYAMYWVRQAPGKGLEWVSAIVSGGGSTDYADSVKGRFTISRDNSKNTLYLQMNSLRPEDTALYYCAADTLYTSLTWYSYWGQGTLVTVSS | 0.058 | 0.064 | 24 | 25 | 0.0024 | 0.0025
16 | T0263018B11 S52aN (VHH, name in Kabat numbering, FLAG3-His6 tagged) VHH: EVQLVESGGGVVQPGGSLRLSCAASGFTFSSYAMYWVRQAPGKGLEWVSAISNGGGSTDYADSVKGRFTISRDNSKNTLYLQMNSLRPEDTALYYCAADTLYTSLTWYSYWGQGTLVTVSS | 0.063 | 0.047 | 51 | 60 | 0.0012 | 0.00079
17 | T0263018B11 S52H (VHH, name in Kabat numbering, FLAG3-His6 tagged) VHH: EVQLVESGGGVVQPGGSLRLSCAASGFTFSSYAMYWVRQAPGKGLEWVSAIHSGGGSTDYADSVKGRFTISRDNSKNTLYLQMNSLRPEDTALYYCAADTLYTSLTWYSYWGQGTLVTVSS | 0.15 | 0.11 | 46 | 48 | 0.0032 | 0.0022
18 | T0263018B11 S52aV (VHH, name in Kabat numbering, FLAG3-His6 tagged) VHH: EVQLVESGGGVVQPGGSLRLSCAASGFTFSSYAMYWVRQAPGKGLEWVSAISVGGGSTDYADSVKGRFTISRDNSKNTLYLQMNSLRPEDTALYYCAADTLYTSLTWYSYWGQGTLVTVSS | 0.081 | 0.095 | 30 | 45 | 0.0027 | 0.0021
